From patent US20120282285A1 (RIGSHOSPITALET, published 2012)

Assays:
Ficolin-3 [1] = target: T1, Ficolin-3 (human, UniProt O75636 24-299); assay: 10-30% sucrose gradient of serum; fractions read by western blot
T1 construct: Serum Ficolin-3 in the co-precipitations, ELISA and gradient. rFicolin-3 on acetylated BSA in the C4 deposition assays; also called rFicolin-3; recombinant human Ficolin-3
Experimental: (§1) Normal human serum was subjected to sucrose gradient separation. 0.75 ml serum was loaded onto 40 ml centrifugation columns consisting of 10-30% sucrose gradients buffered in 10 mM Tris, 145 mM NaCl, 3 mM CaCl₂ and human serum albumin at 30 μg/ml. The loaded columns were centrifuged at 150.000×g in vacuum for 24 hours at 4° C. in a L70 Beckmann ultracentrifuge with a SW28 rotor head. 1.5 ml fractions were collected from the bottom and analyzed by specific ELISA or immunoblotting for the following antigens: MAP-1, MASP-1, MASP-2, MASP-3, sMAP, MBL, Ficolin-2 and Ficolin-3. The peaks of the serum IgM (19S) and IgG (7S) were also assessed indicating the molecular […]. Additionally the fractions were analyzed for the capacity to activate exogenously applied C4. […] The C4 deposition was subsequently measured with polyclonal antibodies to C4c (Q 0369, Dako, Glostrup, Denmark).
(§2) In order to investigate the distribution of MAP-1 in relation to associated molecules and to examine how much appears non-associated we subjected normal human serum to density fractionation using a 10-30% sucrose gradient and ultracentrifugation. Subsequently the collected fractions were analyzed for MAP-1, MASP-3, MBL, Ficolin-2 and -3 by ELISA (FIG. 31A) and MAP-1, MASP-1, -2 and -3, sMAP, MBL, Ficolin-2 and -3 by western blotting (FIG. 31B). […]

Ficolin-3 [2] = target: T1, Ficolin-3; assay: 10-30% sucrose gradient of serum; fractions read by ELISA and western blot
Experimental: as §1, §2

T1 sequence (O75636 24-299 limits assumed): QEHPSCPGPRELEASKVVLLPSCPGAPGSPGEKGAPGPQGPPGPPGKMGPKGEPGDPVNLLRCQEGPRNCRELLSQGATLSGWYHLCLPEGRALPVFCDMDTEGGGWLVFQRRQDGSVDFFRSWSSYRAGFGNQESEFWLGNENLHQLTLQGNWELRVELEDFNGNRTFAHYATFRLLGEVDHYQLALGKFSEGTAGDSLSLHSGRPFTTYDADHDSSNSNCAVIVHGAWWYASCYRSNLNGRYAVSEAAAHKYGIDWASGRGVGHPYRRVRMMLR

Row | Binder | binding result (Ficolin-3 [1]) | binding result (Ficolin-3 [2])
1 | small MBL-associated protein (sMAP) (other, Serum protein in the sucrose gradient; also called MAp19; MBL-associated plasma protein of 19 kD) TPLGPKWPEPVFGRLASPGFPGEYANDQERRWTLTAPPGYRLRLYFTHFDLELSHLCEYDFVKLSSGAKVLATLCGQESTDTERAPGKDTFYSLGSSLDITFRSDYSNEKPFTGFEAFYAAEDIDECQVAPGEAPTCDHHCHNHLGGFYCSCRAGYVLHRNKRTCSEQSL | binds | 
2 | MBL-Associated Serine Protease-3 (MASP-3) (enzyme, also called rMASP-3) HTVELNNMFGQIQSPGYPDSYPSDSEVTWNITVPDGFRIKLYFMHFNLESSYLCEYDYVKVETEDQVLATFCGRETTDTEQTPGQEVVLSPGSFMSITFRSDFSNEERFTGFDAHYMAVDVDECKEREDEELSCDHYCHNYIGGYYCSCRFGYILHTDNRTCRVECSDNLFTQRTGVITSPDFPNPYPKSSECLYTIELEEGFMVNLQFEDIFDIEDHPEVPCPYDYIKIKVGPKVLGPFCGEKAPEPISTQSHSVLILFHSDNSGENRGWRLSYRAAGNECPELQPPVHGKIEPSQAKYFFKDQVLVSCDTGYKVLKDNVEMDTFQIECLKDGTWSNKIPTCKIVDCRAPGELEHGLITFSTRNNLTTYKSEIKYSCQEPYYKMLNNNTGIYTCSAQGVWMNKVLGRSLPTCLPECGQPSRSLPSLVKRIIGGRNAEPGLFPWQALIVVEDTSRVPNDKWFGSGALLSASWILTAAHVLRSQRRDTTVIPVSKEHVTVYLGLHDVRDKSGAVNSSAARVVLHPDFNIQNYNHDIALVQLQEPVPLGPHVMPVCLPRLEPEGPAPHMLGLVAGWGISNPNVTVDEIISSGTRTLSDVLQYVKLPVVPHAECKTSYESRSGNYSVTENMFCAGYYEGGKDTCLGDSGGAFVIFDDLSQRWVVQGLVSWGGPEECGSKQVYGVYTKVSNYVDWVWEQMGLPQSVVEPQVER |  | binds
